B1: RAD54B (parent)
chain: YVQEKRDGLKRRQQLEEELLRAKI
B2: USP39 (parent)
chain: FQGSMRIFTKKLPHPDLPAEEKEQ

Variants of: B1
Assay: protein stability index of a GFP-peptide fusion (GPS, HEK-293T) (PSI 1-6); higher = more stable
Conditions: c terminus: a fixed tail appended
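Further: lentivirally expressed fusions sorted by FACS into six bins by GFP to DsRed ratio, PSI derived from sequencing read proportions per bin multiplied by bin number.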

Protein stability index, by site and new letter:
L15: R 1.99, H 2.38, C 1.87, F 1.4, P 1.51, I 2.32, T 1.55, V 1.48, M 2.56, D 2.09, Q 1.7, K 2.05, G 1.75, A 1.93, Y 2.44, W 1.49, E 2.61, S 1.95, N 2.05
R21: H 1.57, C 1.87, L 1.84, V 1.94, P 2.32, E 2.17, M 1.96, N 1.8, W 1.93, D 2.1, T 2.26, A 1.66, Q 1.89, K 2.19, F 1.93, G 2.09, I 2.16, Y 1.75, S 2.97
E16: L 2.17, V 2.24, Y 1.73, T 1.83, D 1.77, P 1.56, I 1.51, H 1.74, M 1.74, R 1.53, W 1.73, G 2.41, F 2.74, A 1.98, N 2.07, C 2.09, Q 1.8, K 1.67, S 1.39
Q14: P 1.99, L 1.86, N 1.65, M 1.75, V 2.01, T 1.75, Y 2.25, S 1.67, R 2.09, W 2.12
A22: P 1.68, E 2.92, I 2.32, C 1.83, K 1.82, D 2.29, F 2.06, G 1.89, S 2.16, T 1.98, R 1.83, Y 1.81, N 2.01, H 1.52, W 2, M 2.27, L 1.99, V 2.45, Q 2
L20: C 1.59, Q 1.75, T 1.82, R 2.18, M 1.78, E 2.25, H 1.81, W 2.08, P 1.78, A 1.95, Y 2.26, D 1.97, K 2.19, F 1.3, I 1.76, V 1.49, G 2.08, N 1.94, S 1.67
K23: N 2.28, C 1.79, D 2.55, P 2.63, S 2.36, A 1.78, G 1.86, M 2.62, I 1.73, E 1.71, Y 1.49, L 3.08, F 1.81, H 2.95, Q 1.59, T 2.08, R 2.45, V 2.25, W 1.59
E17: R 2.44, D 2.01, Q 1.51, V 2.25, I 2.45, L 2.19, W 1.9, F 1.87, A 1.6, T 2.08, N 2, M 2.21, Y 1.36, C 2.21, H 1.84, K 1.9, P 1.98, S 2.15, G 2.35
L19: I 1.88, W 2.17, N 2.14, C 1.95, V 1.7, K 2.42, D 2.3, S 2.45, G 2.54, M 2.06, P 2.34, F 2.37, E 1.95, Y 1.55, H 2.16, R 2.38, A 1.96, T 1.75, Q 1.78
I24: Q 2.22, M 2.05, C 1.75, E 2.17, D 2.73, H 2.38, A 1.98, F 1.98, P 2.45, K 1.87, L 1.65, R 1.68, T 1.58, G 2.08, W 2.28, Y 1.74, N 2.18, V 1.92, S 1.93
E18: A 2.02, S 2.13, F 2.06, R 1.88, N 1.96, P 2, W 2.42, K 1.95, L 1.55, M 2.01, I 1.67, Q 2.03, C 1.73, D 1.86, Y 2.22, T 1.48, V 1.94, H 2.29, G 2.53

Variants of: B2
Assay: as above
Conditions: c terminus: a fixed tail appended

Protein stability index, by site and new letter:
F1: H 4.53, R 4.95, E 5.48, I 4.17, W 4.78, N 5.22, Y 2.11, T 4.86, A 5.07, Q 4.89, M 4.19, K 4.9, P 4.83, V 4.52, L 4.29, S 5.04, G 4.66, D 5.37, C 4.82
M5: D 2.11, K 2.07, F 1.89, E 2.5, P 1.87, W 2.14, T 1.61, Y 1.85, S 1.61, C 2.62, Q 2.29, V 2.17, I 1.66, A 2.1, R 1.89, L 2.01, N 2.15, G 1.73, H 1.82
I7: M 2.44, D 3.85, C 1.8, F 2.94, A 2.56, L 1.84, N 3.65, S 3.38, E 4.04, R 4.38, T 3.01, H 2.97, P 1.93, K 3.69, G 2.89, W 3.05, V 1.99, Y 2.12, Q 3.65
S4: P 2.3, Q 2.25, C 1.39, W 2.04, M 4.08, T 1.98, Y 2.25, K 2.37, N 1.79, D 1.33, E 2.28, A 2.33, I 2.27, F 1.1, H 1.69, R 2.46, V 1.95
G3: W 1.85, R 3.64, Q 3.51, P 2.53, Y 2.57, A 2.61, D 1.61, I 2.07, V 2.01, N 2.2, T 3, K 3.37, H 2.54, S 2.31, E 2.17, C 1.86, L 2.23, M 2.67, F 1.68
Q2: K 4.16, R 3.89, F 2.99, L 2.73, W 2.82, I 1.78, N 2.85, E 4.12, T 2.2, C 3.34, M 3.46, S 2.7, P 1.75, Y 2.92, G 3.26, A 2.29, D 4.49, H 3.58
F8: E 4.01, A 3.6, C 3.05, G 3.48, D 4.23
R6: A 1.92, V 1.82, T 2.01, E 1.81, H 1.83, Y 2.24, K 1.89, M 2.15, G 1.64, D 1.84, P 2.37, I 2.12, F 1.76, C 1.76, Q 2.22, L 2.31, N 1.3, S 3.04

Source: the supplement of paper PMC10567573
